The domain aggregation screens of Martell et al. (2025)

Test: soluble fraction after stress (log2 fold change); higher = more stays soluble; pooled small domains, quantitative proteomics
Conditions: stress: pH 4
Method in brief: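 Following acid stress at pH 4, the amount of each small protein domain still soluble was measured in pooled custom libraries by high-throughput quantitative proteomics. Its fold change, on a log2 scale, is higher when more of the domain stayed soluble. This fold change is taken as a measure of aggregation propensity.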

Sequence | soluble fraction (log2)
HMEFQISLAAARVNANMTQEDTARAMKVSKTTIVNWEKGKVIPGIPEVEMMSRLYGIPQDYIFLP | -0.796
HMQITDSGAIETIIDKIIADNPGQVTQYLSGKDKVFGFFVGQTMKASQGKANPAEVNKILQEKLK | -0.029
HMSYFNEYEVGDTIRVVNGPLADQISTITAIDKEKGLVNISTVFFGRENNVQVSINDIEKYN | -0.903
HMGQAVTMLKAGRLLANAKGTGAPVRSLEPGMLLYPTGVKEGTMWEVEDEMGNKGWVNSTLMETA | -0.284
HMDIPITFEQLPAKAQAFVKQYFKIEEIASVWRDDDIHDQDYKVYFNDGSEIEFYANGDWEEV | -0.468
HMYYTAPDGRKREILDAALRLIAAGGPDSLTYRRVADEAGVPLGSLTYYFEAREDLIREAFRLYIAEASR | -1.6
HMPKHFIDFSEGEVVSITDGPFKGFDGAISEIDNQKGKVKVMVSMFGRDTSVELDALQVKKV | -0.364
HMDKEVLYVTVNDKKVKLDGKNHIFIDIFNYIDFDIKKPNGSIVLKLNGKNAGYMDEIKDGDKIEIYWDK | -0.277
HMATKVNSGVTVRDLAELLGLSSADLIKKLMTMGEMATLTQTLTDDSVKAIADEYDRKIEIVSAAQ | -0.771
HMSPSTNKTFSFSKENISIGQTVFIKKLNQNATVLTLPNKSNQLQVQFGVITMNVKLEDLALPTN | -0.0832
HMEDVDTAALEKVIATAKGLNKNDYTATTWTTMQAALTNAEKALEAKKSQTSVDEAAKTLQAAIDGLKKAS | -0.103
HMVEKNALSEEIEGYVNKYGKDRSSLMPVLQAIQRKHSYINDFAQQEVARLLDIHPVEVFSVISFYSFLH | -1
HMKDESQLVGAEGKAVTPLRPTGVALIGEKRLDVLTEGEFIPRNSDIIVSRVEGNKIIVKLKN | 0.22
HMDNFDVVLTSPGDQKVQVIKAVRSITGLGLKEAKDLVDGAPNTVKEGVKKLDAEEMLKQLTEAGATGEL | -0.366
HMIMNKEIPVVADEFVEKEFGTGAVKLTPAHDPNDYESGERHGLEVVEVFDETGKMNDLVPEYEG | -0.0198
HMKISELAKKVIASGRVTQWAKHPHIYFVNGMRKVAIELDVNGVFSISMRYYPYDPADRELVENLIRGD | -0.572
HMSKITNALLMMKLLSNGKVYSVKELSEELGVTERMVRNYKEQLEMSGYIIESFKGPGGGYFINKN | 0.207
HMEPAPPPAAPPADPELQKRIDKLVEYIGKNGPEFEAVIRDKQHDNPDYAFVFGGEGHAYYRYLLWLLPRP | -0.287
HMNNSVAYSTFLNDIRTNTLKDVDMTSNSETINVTKKDGTKYQTVMPMYDRDLLADLSKTDATVTGQP | -0.155
HMEGMQATVTQITDEGITVRYVMNGQMVTRTLTSDEVAFVNRGQAVSDLAGAYRVGQTVWIY | -0.179
HMAQWGFNGSEAGDLSFQQGDVIEVVEKVKDDWWRGRVLGSTEIGLFPS | -1.64
HMIQNEITLMLQVNGKLRGQIQVPSDASKEQIEQLAKDSEAAQKALAGASPKKIIVVPGRLVNIV | 0.183
HMEYSAAYDRELESIFNLTERGKWEEAEAEVGLLLQQYPEDKTLLRISEWVATQKTILREQAIEDRIRS | -0.48
HMRTDTIINSGGLKINPEEVENEILKSLGDNNFFIDKIKNDKFGEEIILIALKKIKINLLIESLNLI | -0.286
HMKMVSTPTGTRISLTQVKEFISNASFDDMKEILLEVLAWFKAHNLGNPFNYNRAFEFIVAH | -0.302
HMEEKVEVPNLSGKTYQQAKALLESYGLVAAKGGEEESEEPVGKVSRWSSAGKSVKKGTTITVWISGGI | 0.1

Sequence | soluble fraction (log2)
HMETAADLLAAAKENPARFGILASEGRFGLGYMNDDLLDPDNLVAISREEADDLRGLGVYFHNLD | -0.308
HMSSVVVARTWTDTTGDFKVEAELLGVEGGLVRLKKEDGTVLSVPIAKLSTADRTFLQENQP | 0.22
HMQEEFVAPDVKDGAIVLHKAFGEGTVTKIDKAQKHIRVTFGVGEKTFIFPDAFKQGFLRMKG | 0.222
HMNQDIIEIGNNIQKIRKKNGISQSVLAEKIDVAGNSIYRMEGATTVMGVDKLINIADALNTSPMDILPAR | 0.0428
HMKQTDQELAEMLRFRAAQRGLLMSDEVVNYVMTRVERSAKSLIMLLDRIDRAALAQARPVTIPLINEL | -0.606
HMSGTYIATVEAGSLDIYKSMTSNETIGKASRGDVFQILEDMGSGYARVSYNDVEGYMSIKTGDASIEEL | -1.83
HMENRREYQKAIDYLSDQIRAGTLTVGSRLPTERAIAEALGISRNSTREALRTMENMGMIESKQGSGHYLT | -0.0814
HMNETSRTRALNILGLKATATQEDIKKAYRSLAKEYHPDKLVGVSEGVKKISEEKFREINEAYEYLI | -0.00502
HMKKTITISNYINVRDFATMSELPVNSILSVLMKNGIFVSLNEKIDFDTAWLVGSELGLEVKQKQG | -0.818
HMKYKTKRDMILALMKKEILSGELKPRTRLLISEVASRYEVSEIPVREAFQVLIQEDLVRSTGAGFEVT | 0.233
HMDSPALAIPSSAILRDGLEHIFFRQDPSDPDQVIRVVADLGLSDGRWTVVRSGLERTDQVVLSGA | -0.281
HMEPALYRLFMAHPELNASAVARRLGIAQSLLAQYISGSKKPSPERERMILTEIHKIGEELATAS | 0.102
HMITIDNYFNKEKELDFSSFPEALRKGHGFVSKATAHGSSWVSYHSSDAIKKTIDIYLSKLNEYLSNNAKA | 0.0989
HMELIELTVTEEFEMARLDQFLAGHLTQSRTYIQKLIKAGQITINGNLITRVKVPVHYGDFILINIPDPE | -1.6
HMPNLAAAIGARVTIRLREASGGFRDIVGTLQRFGDGVNELLNSKGQIISFSEDEIAIWREIK | -0.326
HMQVSIGERVKLARMSAGLNQRQLGKEMGMSAMAISKYETGEVVPNSRVLIQLSQTLHVPLDFFFRS | 0.0627
HMQQLTQRELTLLRLLANGYNNRQIAEQLQLAESTVKNNLSALFQKIGVRDRTQAVLFAISQGLVP | -0.462
HMAPKVHLLKVPVDKIREIIGTGGKVIRQITEETGAKIDISDDGSVKVSSPDQSSIDAATTWITGIIAE | -0.102
HMSYTAYLSQELGDMSREIQSELLKKGYNGSSSFTIVRTYMGSSVKFSVYNANNGELITSKTINM | -0.306
HMVGKIVVPHLEGKPAEMARDILARDGFKSVHEEVLPSAEFGAGRVVRTEPHAGTNVAKTDPVTIFVSVGL | -0.0761
HMLLGPDALTNRELDVLALLERRLSNKEIGALLYISPRTVKRHTINIYQKLHVNNRRAAVAQAKALGLMPD | -0.489
HMYSDQRMEIFLEHLPDFIEQLSHKHVTRQMVWEDYRMIYPDGYGKSQFFFHLAQNLKAQKP | -0.489
HMPTSILEKILNSAAEQFTRYGFKTITMDDIARHAGVSKKTLYQHFETKLDIIVAAVTHFHTMKF | -1.65
HMGAAITEAEAKQIALDHAGVSESETERMRVKLGRDDGVQEYEVNFYVGNREYDYDINAATGEIRSHDSE | 0.22
HMSIYQYFNISEINSIDDLKKQYFKLAKKYHPDAGGDKVSFQELQNEYEQLTKKILSGAELNADELKTE | -0.163
HMDEYTREQFVADMEEGRVREVTIHPNSEVPTGYIRVELANGADMKLYVTDIVEAEELVRSYGFDPPVRDV | -0.56

Sequence | soluble fraction (log2)
HMTATIEEVNELTQSARVNINVPYAAKDEAKAYGAKWDDVERTWYTTGENYAQNKDFFDGFNPTAS | -0.132
HMKDSIQIPNVVGMTIKDAQSQYGKSFSIIEQNRTESTKPAGTILEQTPAGGDTVSKRDNIIIRVVVSLG | 0.36
HMKANIGDQVFTQLKDQIINGEWRPGDRIPSEAQLIQLFGVSRGTVRQAVQKLAGEGLIVTRHGEGSFVQG | -0.0317
HMPVFYATNRQKTTIHNLKRKKGLDDDAYRATIYSFTHGRTDSSKYMYKYEAAELIQKWLDPE | -0.157
HMALALSGVDLNRNRLTISWQTSKGVSYRVQRSSDLQSWTDVGAERLGNGNRLSHTQALNTESAFLRVII | -0.674
HMSASSDATRQRVLRAAEQLFGAKGVENVSLREMTTLAGVNLAAVNYHFGSKDALAEAVFEALSER | 0.138
HMTYSAFITARNKRIAEEYSVLLDSLNISNNVIYRLGSWVVEVNVSDHSRAIDEIYSYERSGRIDKV | -0.534
HMLNPLLLPFVEAEDFQVKLEILAAMEGKVGEEDLDILYEALDLPKMTGNIEEQIHSIKQYIEMRK | -1.39
HMAGYDTYMVDRDAELLPWLLETLQRESRSKVKATLQGNGIKVNGKRVTQFNYPLKAGMKVSVSKSK | 0.129
HMGTRHPLPYAFAKAHTVLLEDDGDRLLLHAAENSGPSALGEILRLYDVDALERETASTLANRIAVAYAG | 0.163
HMEDWTPERFVGAFVSGGPALRDEILLAATKDLSHAQATRLLKLAEARGLVHRSQPGPSERVRFVVARK | -0.0732
HMPSREDFAYDSIKEAILSGELLPNQKISLSDLANKLGISIIPVNSAVGRLVAEGLVRQDPHHSPYVV | -0.31
HMEEVVIPDLAGLTEEEATKVLMAKELKLKVSGSQHSDIEKGLIISQDPPAGEKGAKNSQVAVVTSSG | -0.000599
HMTPTPQQNNILVGQTGTTLTRLAPMGKVRVGEVTAEAKTIDGYINPRQSVEVIGFENTVVIVRAV | 0.22
HMIGITTANLNVRTGTDTNYTSIAILPKGTKVNILEENVKPGWYKIQFDEIYAFVSSKYIKIQS | 0.243
HMKRYLFEEVLAFLKHNDGKSFNYKQLGAAMEIDNESDRFALLETLEELKHQGFVIETDIGKYAAKE | -0.322
HMYAVQKGDTLKKIADQFGISVDTIKWANDMKGDALSIDQELKIP | 0.0154
HMEKGIVSNKTDKGYGFIRSSTGESIFVHINNVGKEAYEQLAKGSRVLFDYEVTDRGKRATKVMLEPSES | -0.401
HMDAHIGTLTPRERETLHHLAIGHSNKVIAKKLNLAESTVKAYVQSILRKLGLSSRVQAAVYAIQHDIR | -0.23
HMRTIVSELNDIKGISDASAKKLLIRYGSFEAVREAVMKHEEEFELDMGKRITGALTRYFYEE | 0.223
HMGSKEQELVILNNILERQLQAINLQKSAAGPMVNLRNVHNTLTKLVEAAGLKNVETYFTDPVIGAAQ | -0.543
HMSHGFVHLKGAVQHPGIYPVKENTRWDEVVKAAGGLTAAADIQQVNLAKVASDQESLYVPEKGET | 0.161
HMSDKEDIDKYLLTYGDLLFNRTNSSEWVGKTAIYRGEVSAIYAGYLIRIRSFLDAEYLNSVMNSKYA | -0.485
HMTVSRRYTENEMETALKAYLATHNFISRRDMQQEFALTIYSARKWLNHFVDVGLIERIGLKNAPIYKL | 0.22
